{"source": "patent US20250123292", "proteins": {"B1": {"name": "Recombinant Human BMP-1/PCP (R&Dsystems, catalog Number: 1927-ZN) (protein)", "chain": "AATSRPERVWPDGVIPFVIGGNFTGSQRAVFRQAMRHWEKHTCVTFLERTDEDSYIVFTYRPCGCCSYVGRRGGGPQAISIGKNCDKFGIVVHELGHVVGFWHEHTRPDRDRHVSIVRENIQPGQEYNFLKMEPQEVESLGETYDFDSIMHYARNTFSRGIFLDTIVPKYEVNGVKPPIGQRTRLSKGDIAQARKLYKCPACGETLQDSTGNFSSPEYPNGYSAHMHCVWRISVTPGEKIILNFTSLDLYRSRLCWYDYVEVRDGFWRKAPLRGRFCGSKLPEPIVSTDSRLWVEFRSSSNWVGKGFFAVYEAICGGDVKKDYGHIQSPNYPDDYRPSKVCIWRIQVSEGFHVGLTFQSFEIERHDSCAYDYLEVRDGHSESSTLIGRYCGYEKPDDIKSTSSRLWLKFVSDGSINKAGFAVNFFKEVDECSRPNRGGCEQRCLNTLGSYKCSCDPGYELAPDKRRCEAACGGFLTKLNGSITSPGWPKEYPPNKNCIWQLVAPTQYRISLQFDFFETEGNDVCKYDFVEVRSGLTADSKLHGKFCGSEKPEVITSQYNNMRVEFKSDNTVSKKGFKAHFFSEKRPALQPPRGRPHQLKFRVQKRNRTPQ"}}, "biological_target": "recombinant human endorepellin/perlecan (R&Dsystems, catalog Number: 2364-ER-050), intact, P98160"}
{"protein": "B1", "values": [{"measurement": "measured levels of LG3 (LG3 ELISA) after in vitro cleavage, 24 hours at 37 C", "value": "LG3 was detected only in the endorepellin with BMP-1 sample"}]}
